Assay results reported in the domain aggregation screens of Martell et al. (2025).

Assay: soluble fraction after stress (log2 fold change); higher = more stays soluble; pooled small domains, quantitative proteomics
Conditions: stress: 50 degC
Procedure, shortened: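 The stress applied to every library was 50°C. These custom libraries of small protein domains were pooled and measured at high throughput with quantitative proteomics as the read-out. Aggregation propensity is expressed as the base-two logarithm of the fold change in how much of each protein remains soluble. The higher the value, the more of that protein stays in solution.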

HMPGEATVPSVIGMTKAEAKAKLQASGFELGYSEFVASDKPKGEIVEQDPGAGETAKGGTEVNVKISDGS
soluble fraction (log2): -0.0145

HMPGLDTTILSDILSLKKELPSRSAAKILIMLILAKRIEEGSLNLRTINRILNQYGYTRESLL
soluble fraction (log2): 0.0736

HMPGLQSVTPAELKIGMYVILPLAWDEHPFLKNHFLIQSEAQINKIRELGTKGIQIDLSKSHP
soluble fraction (log2): -0.904

HMPGMLVVYVTGAVRQPGRMVTLAAGSRVSDAIDAAGGLADDADAQALNLSARLNDGDLVHVPSALD
soluble fraction (log2): 0.0161

HMPHILEITSSKILDELQDEKKMVYFHFEKQSNQYVYRLIFNSKNELMEFKKSLEKNSSILDVRADM
soluble fraction (log2): 0.216

HMPHITDAEWEVMRVVWANHHVTSKEVISILEDKMNWKATTIKTLLGRLVEKGALSTEQDGKKFIYTAR
soluble fraction (log2): -1.5

HMPHTDATDKQIIALILETLKDGQKHSVSEMTFPGIPREKTAQLLHQMIEEETVRIQNGVLFLPH
soluble fraction (log2): -0.109

HMPIDNTLLSRITSLGVSTTEAEKLISKHGEEALKANLEVVEERLSKPNLPLLDSPAAYLKTALKNG
soluble fraction (log2): 0.318

HMPIEQVEVPNLTNMTREEAESTLTSLNLKAQVHEEANEADEGKVFKQGTNTGEMVDEGSTIEIWVS
soluble fraction (log2): -0.478

HMPIHAGERLTLRLAGEGREAGQAIGYLEDGTLVIVERARHLIGQDVTVEVTRTLQTAGGRLVFAHLVE
soluble fraction (log2): -0.531

HMPKDLEKRAAILAAAKHLFPVHGFEGTSMDAIAALANVSKLTVYSHFKDKESLFTEAIREK
soluble fraction (log2): -0.087

HMPKDMAKRASILTAASKLFVQHGYGGVSMDQIAAEAGVSKLTVYSHYGDKDSLFAAAVQAH
soluble fraction (log2): -0.328

HMPKELAPYDILARYYLTVNNSKQSIALLEQYLDKAGSAPAALKAKLLLAGILYPSGNKERAEKLVEEVIK
soluble fraction (log2): -0.465

HMPKETFLNLDEEKRQAIINVLLKNFSEQHISQVKVSAIVSGIGMSRGAFYKYFEDLEDAYRFTISYFSA
soluble fraction (log2): -0.0102

HMPKLTKEEIQFIDNYLKNSGVEYIDTRAEVVDHVASEIESRLSANNTTNFYEEFKVYMVQHKETLLK
soluble fraction (log2): -0.49

HMPKLVGEVMQTLDALRREKGLSLLLVEQNARAALGVVDRVYVLERGRVVFEGSAKEAMEDQDVMEFYLG
soluble fraction (log2): 0.0385

HMPKRSKDEAELEFLEMLRDNQVDSTWSFGKIISQLGSTDPRYWMVDDDPLWKRQIFEKYLSNR
soluble fraction (log2): -0.292

HMPLDISDDSKAVLKLLKNDSNELNTVKSASGLSNKKWDKTIKELTKNKIVSVSKTEDGLYIHLI
soluble fraction (log2): 0.202

HMPLDYQELRNISPQAARQAILQILKANKGNVSQTARMLGITRKTVYKAMAKREAGNLDDGSRAPK
soluble fraction (log2): -0.554

HMPLLELPDDFYPAWKPKTIYVQGQRIMLDGVAFEAKWWTQGDNPASGQADPGSSPWRTLTQEEIAKLLE
soluble fraction (log2): -0.901

HMPLLKIGAQGHDVRVVQEALQRAGYAIEGVTGIFDEATREAVLAFQRDQQLTESGTVDRATWHALRR
soluble fraction (log2): 0.134

HMPLLSPRQLDVLSLAAGGLSDAQIAGRLVLSESTVRVHFHHIIEKLGVTDRAGAIAWYEQSRS
soluble fraction (log2): -1.03

HMPLNAFDVAGYRLGYGGGYFDRTLAALSPRPLAVGVGFEINRLESIRPEAHDQRLDWIVTENGAFRPA
soluble fraction (log2): -0.867

HMPLNAHIVGRGKRDRRGKRGAPYSIVLELGRDENGKRIQKWYSGYPTKAAAEEDKIRMLRELQTGEYVPQ
soluble fraction (log2): -0.309

HMPLPFSPVMFVGTKSGAQTDLDGNYKIETYYSSDSLKVVVLGYAPLAKKVKQGTTSVVNFELSAAS
soluble fraction (log2): 0.113

HMPLPLYVQIKESLRGQIFDGTYGEHERLPSENDLMSSFGVSRITVRQALSDLEKEELIFKVPGKGAFVSR
soluble fraction (log2): -1.32

HMPLQKNRPKIKPQKVVFLFSVEWMWSPAHNRIDSYFINIKPSRYYLWNSFFDRHSFSDYWDFIGYTEN
soluble fraction (log2): -0.0868

HMPLSDAEKAAAIATQAKERALKLSPEMISYLLRHASRDMRTLSMLVVALDQYTLEQKRPVTLPLLRELLS
soluble fraction (log2): -0.098

HMPMIQHFHRMISAALGISEKQIVQTLGLLNDGATIPFISRYRKEVTGGLDEVQIESIKTHYEKLNEIAK
soluble fraction (log2): -1.52

HMPMPQDEVSYALGLSIGQNFKASGIKAITSEDFIAGLQDALAEREPQMTTERAREVINQLFMRLQQEESE
soluble fraction (log2): 0.145

HMPMTDYQLIRSNRRTIALQITRDARVVVRAPLYASEADIRRFVESHRAWIESHLDRQRARTD
soluble fraction (log2): -1.76

HMPMTRILFLPDDRTILQFDSAEPAEDLVSAVNAGRWLPPEPYRSGFGLGLPENRLRASRQGALVVVMLS
soluble fraction (log2): -0.967

HMPNDYRKKLEILAKEKGAEYLHTMLTEVDPKSALQIHTNNIKRTIRALEFYHQTGMKISEHNEAEREK
soluble fraction (log2): 0.0272

HMPNIHVVFAEEWTDRRLDKVLSEYFDGYSRSFIKKLFDDGLILVNSKAVKPSYKVRAGDMIDISVPDPV
soluble fraction (log2): -0.646

HMPNPALESARPAFEAFLSRFSDGEAMRGPAWGLWSLLHRKGNAPTASHAAGRDGMGVLAFLRHWQWG
soluble fraction (log2): -0.479

HMPPDLSEAIQKRIEGKTDEALEILRKLYNEYPESTEIITMLGRTLLDAEEYALAAFRLEQALDLGG
soluble fraction (log2): -0.569

HMPPDVIENIFKNDANKIIDLYNMAPRGQKETIVEMIKNKRLQGINVDANVLVKLGELTGIDFVN
soluble fraction (log2): 0.0803
